Columns and labels:
[1] = tested on: non-adherent ASS-deficient cells; test: Total protein proliferation assay, non-adherent cells; assay type: cell-based; conditions: 0-10 mIU ml^−1, 120 h
Experimental: (§1) To assess the activity of ADI-PEG 20 in non-adherent cells, cells were plated at a density of 1×10^5 cells per well in a tissue culture 24-well plate. Additional media was then added containing ADI-PEG 20 for final concentrations ranging from 0-10 mIU ml^−1. To measure changes in proliferation following incubation with ADI-PEG 20 for 120 h, cells were collected, washed and lysed in RIPA buffer. Total protein for each treatment was then determined using the BSA protein assay as a measure of total cell number. All treatments were performed at least in triplicate.

[2] = tested on: non-adherent ASS-positive cells; test: as above; assay type: cell-based; conditions: 0-10 mIU ml^−1, 120 h
Experimental: as §1

SK-LC-13 cells = test: FACS analysis of apoptosis by sub-G1 DNA content (propidium iodide); assay type: cell-based, human
Experimental: Apoptosis was measured by FACS of propidium-iodide-stained cells as detailed by Riccardi et al (Riccardi and Nicoletti, Nat Protoc 1(3):1458-1461, 2006). Cells were plated in 24-well plates and treated with ADI-PEG 20 for […]. Cells were then harvested, washed and fixed in 70% ethanol. DNA was then stained using 20 μg ml^−1 propidium iodide containing 10 μgml^−1 DNAse-free RNAse A (Sigma-Aldrich). Cells were then read on a BD FACSCalibur (BD Biosciences) and analyzed using Flow Jo Software (Tree Star, Ashland, Oreg., USA).
In order to determine the possible mechanism of the antiproliferative effects of ADI-PEG 20 a FACS analysis of apoptosis by sub-G1 DNA content was performed. Cells were treated for 72 h before the analysis was performed.

SW1222 = test: MTS viability of siRNA-transfected ASS-positive SW1222 cells treated with ADI-PEG 20; assay type: cell-based
Experimental: To assess the anti-proliferative effect of ADI-PEG 20 on adherent cells, cells were plated a density of 2×10^3 cells per well in a tissue culture 96-microwell plate and allowed to adhere overnight. The following day, cells were treated with ADI-PEG 20 (DesigneRx Pharmaceuticals, Vacaville, Calif., USA, a subsidiary of Polaris Group, San Diego, Calif., USA) ranging from 0 to 10 mIU ml^−1. After incubation for 120 h, cell viability was determined using (3-(4,5-dimethylthiazol-2-yl)-5-(3-carboxymethoxyphenyl)-2-(4-sulfophenyl)-2H-tetrazolium) (MTS, CellTiter 96 AQueous One Solution, Promega, Madison, Wis., USA), according to the manufacturers protocol. Twenty microliters of MTS reagent was added to the appropriate control and assay wells before the plate was incubated for 2 h at 37° C. and absorbance read at 490 nm. Absolute absorbance for each treatment was determined by subtracting the background MTS absorbance, and the mean and standard deviation was calculated. The effect of the autophagy inhibitor chloroquine (Sigma) on cell proliferation was assessed using the MTS assay.
To further assess the importance of cellular ASS expression in response to treatment with ADI-PEG 20, expression of ASS was silenced through the use of ASS-specific siRNA. Small interfering RNA constructs were obtained from Integrated DNA technologies (IDT, Coralville, Iowa, USA) against the ASS-coding region. […]

SK-LC-13 xenografts = test: Moderately sized SK-LC-13 SCLC xenografts in BALB/c-nude mice; assay type: in vivo
Experimental: (§2) The activity of ADI-PEG 20 was also assessed in mice bearing ASS-positive NCI-H69 SCLC xenografts. Small cell lung cancer xenografts were established in female BALB/c-nude mice, 3-4 weeks of age weighing ˜20 g (Charles River Labs, Wilmington, Mass., USA). To establish the tumors, 10×10^6 cells in media were mixed 1:1 with Matrigel High Concentration (BD Biosciences) and injected subcutaneously in the abdominal area of the mice. Tumor growth was regularly measured and tumor volume calculated using the formula (TV=(length×width^2)/2). All animal studies were approved by the MSKCC Institutional Animal Care and Use Committee. Mice were euthanized when tumors reached an approximate volume of 1,000 mm^3.
(§3) The anti-tumor efficacy of ADI-PEG 20 was simultaneously assessed in mice bearing either moderate or large SK-LC-13 SCLC xenografts. In the first study, treatment was initiated once tumors had reached an average size of 125 mm^3. In the large xenograft study, treatment was initiated once tumors had reached an average size of 500 mm^3. Arginine deiminase-PEG20 was administered at doses of 1, 2 and 5 IU per animal once every 5 days for 20 days (five doses). To assess the effect of sustained dosing, further groups (n=5) at all dose levels received continued administration of ADI-PEG 20 every 5 days until tumors progressed to the 1,000 mm^3 size limit. Additionally, the efficacy of ADI-PEG 20 was assessed in mice bearing ASS-positive NCI-H69 xenografts. Here, mice received five doses of 2 IU ADI-PEG 20 for 20 days once tumor had reached an average size of 150 mm^3. Arginine deiminase-PEG20 was administered by intraperitoneal injection in all studies. The specific activity of ADI-PEG 20 used in these studies is 9 IU mg^−1 of protein. Thus, 1 IU of ADI-PEG 20 per 20 g mouse is equivalent to 160 IU m^−2.
Efficacy of ADI-PEG 20 treatment in vivo was assessed by comparing means of control and treatment groups using unpaired two-tailed t-tests at the termination of control groups using GraphPad Prism (Version 5.0, GraphPad Software Inc., La Jolla, Calif., USA).

NCI-H69 xenografts = test: ASS-positive NCI-H69 SCLC xenografts in BALB/c-nude mice; assay type: in vivo; conditions: five doses of 2 IU over 20 days, intraperitoneal
Experimental: as §2
The anti-tumor efficacy of ADI-PEG 20 was simultaneously assessed in mice bearing either moderate or large SK-LC-13 SCLC xenografts. In the first study, treatment was initiated once tumors had reached an average size of 125 mm^3. In the large xenograft study, treatment was initiated once tumors had reached an average size of 500 mm^3. Arginine deiminase-PEG20 was administered at doses of 1, 2 and 5 IU per animal once every 5 days for 20 days (five doses). […] Additionally, the efficacy of ADI-PEG 20 was assessed in mice bearing ASS-positive NCI-H69 xenografts. […]

[3] = Specific activity of ADI-PEG 20; assay type: biochemical
Experimental: as §3

[4] = tested on: ASS low expressing osteosarcoma cell line MNNG; test: Xenograft of osteosarcoma cell line MNNG in nude mice; assay type: in vivo; conditions: compared to PBS treated controls

B1: ADI-PEG 20: arginine deiminase (ADI) formulated with PEG of 20,000 m.w. (protein)
chain: MSVFDSKFNGIHVYSEIGELETVLVHEPGREIDYITPARLDELLFSAILESHDARKEHQSFVKIMKDRGINVVELTDLVAETYDLASKAAKEEFIETFLEETVPVLTEANKEAVRAFLLSKPTHEMVEFMMSGITKYELGVESENELIVDPMPNLYFTRDPFASVGNGVTIHFMRYIVRRRETLFARFVFRNHPKLVKTPWYYDPAMKMSIEGGDVFIYNNETLVVGVSERTDLDTITLLAKNIKANKEVEFKRIVAINVPKWTNLMHLDTWLTMLDKNKFLYSPIANDVFKFWDYDLVNGGAEPQPQLNGLPLDKLLASIINKEPVLIPIGGAGATEMEIARETNFDGTNYLAIKPGLVIGYDRNEKTNAALKAAGITVLPFHGNQLSLGMGNARCMSMPLSRKDVKW
With B1 the proliferation [1] was “relative decrease in proliferation”, the proliferation [2] was “almost total resistance” and the “cells in apoptosis (sub-G1 DNA content)” value (SK-LC-13 cells; 1.0 mIU ml^−1, 72 h) was about 6%. The “cells in apoptosis (sub-G1 DNA content)” value (SK-LC-13 cells; 10 mIU ml^−1, 72 h) was about 16%, the cell viability (SW1222; cells treated with ASS siRNA) was “reduced cell viability” and the cell viability (SW1222; control or scrambled siRNA-treated cells) was “no decrease in viability”. For the same molecule, the “tumor growth relative to control mice” value (SK-LC-13 xenografts; 1, 2 and 5 IU per animal every 5 days, intraperitoneal) was “significant and dose-dependent reduction in tumor growth”, the “mean tumor volumes, short vs continued dosing” value (SK-LC-13 xenografts; 1 IU (P=0.251)) was “not significantly different” and the “mean tumor volumes, short vs continued dosing” value (SK-LC-13 xenografts; 2 IU (P=0.084)) was “not significantly different”. For the same molecule, the “tumor size, continued dosing vs dosing for only 20 days” value (SK-LC-13 xenografts; 5 IU every 5 days, at completion of the study (P=0.0063)) was “significantly smaller”, the “mean tumor volume of control mice compared with ADI-PEG 20-treated groups” value (SK-LC-13 xenografts; day 33, regardless of dose or schedule (P>0.0001)) was “significantly larger” and the tumor growth (NCI-H69 xenografts) was “did not produce any effect on tumor growth”. For the same molecule, the specific activity [3] was 9 IU mg^−1 of protein and the tumor growth rate [4] was “significantly slower tumor growth rate”.

— patent US9333268B2, “Methods of treatment with arginine deiminase” (Polaris Group, priority 2012, dated 2016)
